Consider five molecules from publication PMC6805999, “Molecular Mechanism of SR Protein Kinase 1 Inhibition by the Herpes Virus Protein ICP27” (mBio, 2019).

One experiment has as its target SRPK1 (Homo sapiens) (UniProt Q96SB4). The note with it: cited from earlier work.
The target in experiment [1] is T1, GB1-SRPK1 (full-length SRPK1 with N-terminal GB1 solubility tag) (Homo sapiens, UniProt Q96SB4).
T1 construct: His tag; made in house; host or cells: E. coli BL21-CodonPlus (DE3)-RP
As to the kind of experiment: Isothermal titration calorimetry (ITC) of ICP27 peptides with GB1-SRPK1. The note with it: 25°C, 10 μM GB1-SRPK1 in cell, 120 μM peptide in syringe, 20 mM HEPES, 150 mM NaCl, 1 mM TCEP pH 7.4, single-site model, mean of 3 runs (± SD). Type of experiment: binding. The source says:
The RGG box in full-length ICP27 (Fig. 1A) was previously identified by mutagenesis experiments as the segment necessary for interaction with SRPK1 ([27]), with the binding modulated by arginine methylation ([51]). […] To further confirm and map the RGG box interaction with SRPK1, we expressed and purified ^15N-labeled ICP27^103–155 and using the established backbone assignment ([55]) carried out nuclear magnetic resonance (NMR) signal perturbation mapping by comparison of ^1H-^15N correlation spectra in the presence and absence of unlabeled GB1-SRPK1 (Fig. 1E). […] These solution data together confirmed that SRPK1 binds with high affinity to a relatively short region of ICP27 containing the RGG box, with possible further contributions from nearby residues 112 to 121, whereas other residues retain significant flexibility when the peptide is bound. […]
GB1-SRPK1 and ICP27 peptides were placed into Slide-a-Lyzer G2 cassettes (Thermo Fisher) and dialyzed within identical buffer consisting of 20 mM HEPES, 150 mM NaCl, and 1 mM TCEP [Tris(2-carboxyethyl)phosphine hydrochloride] […] Protein concentrations were measured by absorbance at 280 nm using extinction coefficients ([67]) of 86,580 M^−1 cm^−1 and 5,500 M^−1 cm^−1 for GB1-SRPK1 and ICP27^103–155, respectively. […]
On the technique in general: ITC needs no label: the signal is the heat of the interaction.

Experiment [2] has as its target T2, full-length SRPK1 tagged with an N-terminal GB1 solubility tag (human, UniProt Q96SB4 1-655).
T2 construct: serine-arginine protein kinase 1 (SRPK1), human, full length; probably also carries a His tag used for purification; also called GB1-SRPK1; serine-arginine protein kinase 1; source: E. coli, purified (GST or His tag purification, size exclusion chromatography); not shown: GB1, N-terminal, kept
As to the kind of experiment: ITC; 10 μM GB1-SRPK1 in the sample cell, 120 μM ICP27 peptide in the syringe; 25°C; 20 mM HEPES, 150 mM NaCl, 1 mM TCEP, pH 7.4; single-site binding model. The note with it: both partners purified.

Square brackets hold non-standard residues; d marks the D form. Ends that are not written are not given here.

T1 sequence (Q96SB4 whole entry): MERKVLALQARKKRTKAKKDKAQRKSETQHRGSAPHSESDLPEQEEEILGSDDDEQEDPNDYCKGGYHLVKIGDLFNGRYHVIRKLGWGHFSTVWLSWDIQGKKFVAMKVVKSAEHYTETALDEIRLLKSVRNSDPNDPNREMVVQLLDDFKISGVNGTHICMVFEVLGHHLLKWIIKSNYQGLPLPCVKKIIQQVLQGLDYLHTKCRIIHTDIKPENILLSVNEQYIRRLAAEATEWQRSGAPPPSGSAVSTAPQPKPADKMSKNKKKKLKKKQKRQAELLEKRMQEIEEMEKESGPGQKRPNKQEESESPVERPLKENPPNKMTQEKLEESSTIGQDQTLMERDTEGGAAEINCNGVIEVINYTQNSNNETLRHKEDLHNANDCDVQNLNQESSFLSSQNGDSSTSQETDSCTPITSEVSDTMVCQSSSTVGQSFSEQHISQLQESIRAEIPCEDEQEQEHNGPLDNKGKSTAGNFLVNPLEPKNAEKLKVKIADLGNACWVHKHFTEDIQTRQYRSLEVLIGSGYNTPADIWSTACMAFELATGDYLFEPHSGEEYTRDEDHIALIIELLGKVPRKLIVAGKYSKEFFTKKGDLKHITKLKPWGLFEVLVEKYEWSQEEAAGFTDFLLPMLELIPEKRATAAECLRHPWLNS
T2 sequence (Q96SB4 whole entry): as above
SRPK1 (Homo sapiens), sequence (Q96SB4 whole entry): as above

Regarding SRSF1 (from UniProt Q07955), the dissociation constant Kd in the experiment with SRPK1 (Homo sapiens) is 0.05 µM. In turn, `CC(C)C[C@H](NC(=O)[C@H](CCCNC(=N)N)NC(=O)[C@H](CO)NC(=O)[C@H](Cc1c[nH]c2ccccc12)NC(=O)[C@@H](NC(=O)[C@@H](N)CO)C(C)C)C(=O)NCC(=O)N[C@@H](C)C(=O)N[C@@H](CCCNC(=N)N)C(=O)N[C@@H](CCCNC(=N)N)C(=O)N1CCC[C@H]1C(=O)N[C@@H](CO)C(=O)N[C@@H](CS)C(=O)N[C@@H](CO)C(=O)N1CCC[C@H]1C(=O)N[C@@H](CCC(=O)O)C(=O)N[C@@H](CCCNC(=N)N)C(=O)N[C@@H](Cc1c[nH]cn1)C(=O)NCC(=O)NCC(=O)N[C@@H](CCCCN)C(=O)N[C@H](C(=O)N[C@@H](C)C(=O)N[C@@H](CCCNC(=N)N)C(=O)N[C@@H](CC(C)C)C(=O)N[C@@H](CCC(N)=O)C(=O)N1CCC[C@H]1C(=O)N1CCC[C@H]1C(=O)N1CCC[C@H]1C(=O)N[C@H](C(=O)N[C@@H](CCCCN)C(=O)N[C@@H](C)C(=O)N[C@@H](CCC(N)=O)C(=O)N1CCC[C@H]1C(=O)N[C@@H](C)C(=O)N[C@@H](CCCNC(=N)N)C(=O)NCC(=O)NCC(=O)N[C@@H](CCCNC(=N)N)C(=O)N[C@@H](CCCNC(=N)N)C(=O)NCC(=O)N[C@@H](CCCNC(=N)N)C(=O)N[C@@H](CCCNC(=N)N)C(=O)N[C@@H](CCCNC(=N)N)C(=O)NCC(=O)N[C@@H](CCCNC(=N)N)C(=O)NCC(=O)N[C@@H](CCCNC(=N)N)C(=O)NCC(=O)NCC(=O)N1CCC[C@H]1C(=O)NCC(=O)N[C@@H](C)C(=O)O)[C@@H](C)O)C(C)C` [ICP27^103–155] gave a dissociation constant (Kd) in experiment [1] of 0.0939 µM. Still for that read-out and setting: with `CC(C)C[C@H](NC(=O)[C@H](CCCNC(=N)N)NC(=O)[C@H](CO)NC(=O)[C@H](Cc1c[nH]c2ccccc12)NC(=O)[C@@H](NC(=O)[C@@H](N)CO)C(C)C)C(=O)NCC(=O)N[C@@H](C)C(=O)N[C@@H](CCCNC(=N)N)C(=O)N[C@@H](CCCNC(=N)N)C(=O)N1CCC[C@H]1C(=O)N[C@@H](CO)C(=O)N[C@@H](CS)C(=O)N[C@@H](CO)C(=O)N1CCC[C@H]1C(=O)N[C@@H](CCC(=O)O)C(=O)N[C@@H](CCCNC(=N)N)C(=O)N[C@@H](Cc1c[nH]cn1)C(=O)NCC(=O)NCC(=O)N[C@@H](CCCCN)C(=O)N[C@H](C(=O)N[C@@H](C)C(=O)N[C@@H](CCCNC(=N)N)C(=O)N[C@@H](CC(C)C)C(=O)N[C@@H](CCC(N)=O)C(=O)N1CCC[C@H]1C(=O)N1CCC[C@H]1C(=O)N1CCC[C@H]1C(=O)N[C@H](C(=O)N[C@@H](CCCCN)C(=O)N[C@@H](C)C(=O)N[C@@H](CCC(N)=O)C(=O)N1CCC[C@H]1C(=O)N[C@@H](C)C(=O)N[C@@H](CCCNC(=N)N(C)C)C(=O)NCC(=O)NCC(=O)N[C@@H](CCCNC(=N)N)C(=O)N[C@@H](CCCNC(=N)N)C(=O)NCC(=O)N[C@@H](CCCNC(=N)N)C(=O)N[C@@H](CCCNC(=N)N)C(=O)N[C@@H](CCCNC(=N)N)C(=O)NCC(=O)N[C@@H](CCCNC(=N)N(C)C)C(=O)NCC(=O)N[C@@H](CCCNC(=N)N(C)C)C(=O)NCC(=O)NCC(=O)N1CCC[C@H]1C(=O)NCC(=O)N[C@@H](C)C(=O)O)[C@@H](C)O)C(C)C` [methylated ICP27^103–155] the figure was 0.261 µM.

B1: synthetic peptide of ICP27 103-155, unmodified (peptide)
peptide: SVWSRLGARRPSCSPEQHGGKVARLQPPPTKAQPARGGRRGRRRGRGRGGPGA
notes: also called unmodified ICP27^103–155; nonmethylated ICP27^103–155 peptide; source: synthetic peptide (Peptide Protein Research)
Take B1: binding in experiment [2] was characterised by a dissociation constant (Kd) of 0.094 ± 0.023 µM.

B2: synthetic peptide of ICP27 103-155, dimethylated on R138, R148 and R150 (peptide)
peptide: SVWSRLGARRPSCSPEQHGGKVARLQPPPTKAQPA[ADMA]GGRRGRRRG[ADMA]G[ADMA]GGPGA
notes: HSV-1 ICP27, residues 103 to 155; also called methylated ICP27^103–155; methylated ICP27^103–155 peptide; source: synthetic peptide (Peptide Protein Research)
B2: the Kd in experiment [2] amounted to 0.262 ± 0.021 µM.

One may read the Kd as the equilibrium constant for the complex coming apart.
